Source: patent publication US20210340238A1, “TGFß1 INHIBITORS AND USE THEREOF” (Scholar Rock, Inc., priority 2018, published 2021)

Key:
[1] = test system: TGFβ downstream tonic signaling; experiment: TGFβ downstream tonic signaling in non-diseased rat BAL; format: in vivo
[2] = rat, in vivo
Procedure: Animals receiving pan-TGFβ antibody were dosed once intravenously (at day 1) at a volume of 10 mL/kg and sacrificed at day 8 and necropsies performed. […] Animals receiving LY2109761 were dosed by oral gavage once daily for five or seven days. Animals were sacrificed and necropsies performed.

[3] = in vivo, cited from earlier work

Row | Compound | Effect on TGFβ downstream tonic signaling [1] | Bone findings [2] | Exposure: DN Cmax ([3]; human) | Exposure: Half-life ([3]; human) | Previously reported adverse events in human patients (CTCAE grade) [3]
1 | c1ccc(-c2nn3c(c2-c2ccnc4cc(OCCN5CCOCC5)ccc24)CCC3)nc1 [LY2109761] | inhibit TGFβ downstream tonic signaling in non-diseased rat BAL | macroscopic abnormally shaped sternum and microscopic increased thickness of the hypertrophic zone in the endplate of the sternum and physis of the femur and tibia | – | – | –
2 | GC1008: human analog of 1D11, pan-TGFβ antibody Fresolimumab (GC1008) | – | – | DN Cmax~(350 ng/mL)mg (ng/mL)mg | Half-life: 21.7 d | leukocytosis (grade 3), fatigue (grade 3), hypoxia (grade 3), asystole (grade 5), leukopenia (grade 1), recurrent, transient, tender erythematous, nodular skin lesions, suppurative dermatitis, and herpes zoster
